Assays:
human FcRn-mmh (human) = human FcRn-mmh (human) (UniProt P55899); experiment: SPR, hFcRn.mmh captured, 25 C, pH 7.4; kinetics inconclusive
[1] = biological target: hTSLPR and hIL-7R on Baf3 cells (human) (UniProt Q9HC73)
[2] = biological target: hTSLPR and hIL-7R on Baf3 cells (human) (UniProt Q9HC73); remark: listed apart in the source
[3] = biological target: hTSLPR and hIL-7R on Baf3 cells (human) (UniProt Q9HC73); experiment: cell-based or functional assay

Chain of UniProt Q9HC73 (Q9HC73 23-371, chain 1 of 2): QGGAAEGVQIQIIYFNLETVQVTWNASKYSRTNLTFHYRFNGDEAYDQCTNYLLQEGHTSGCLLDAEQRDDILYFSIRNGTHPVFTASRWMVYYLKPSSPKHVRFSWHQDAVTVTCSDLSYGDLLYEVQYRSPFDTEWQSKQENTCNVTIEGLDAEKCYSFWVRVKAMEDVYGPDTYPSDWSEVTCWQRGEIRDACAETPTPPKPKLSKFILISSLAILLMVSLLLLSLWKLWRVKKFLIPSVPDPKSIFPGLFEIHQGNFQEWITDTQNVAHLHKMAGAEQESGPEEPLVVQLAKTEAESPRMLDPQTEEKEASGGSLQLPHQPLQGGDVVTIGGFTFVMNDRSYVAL
Chain of UniProt Q9HC73 (P16871 21-459, chain 2 of 2, further chain): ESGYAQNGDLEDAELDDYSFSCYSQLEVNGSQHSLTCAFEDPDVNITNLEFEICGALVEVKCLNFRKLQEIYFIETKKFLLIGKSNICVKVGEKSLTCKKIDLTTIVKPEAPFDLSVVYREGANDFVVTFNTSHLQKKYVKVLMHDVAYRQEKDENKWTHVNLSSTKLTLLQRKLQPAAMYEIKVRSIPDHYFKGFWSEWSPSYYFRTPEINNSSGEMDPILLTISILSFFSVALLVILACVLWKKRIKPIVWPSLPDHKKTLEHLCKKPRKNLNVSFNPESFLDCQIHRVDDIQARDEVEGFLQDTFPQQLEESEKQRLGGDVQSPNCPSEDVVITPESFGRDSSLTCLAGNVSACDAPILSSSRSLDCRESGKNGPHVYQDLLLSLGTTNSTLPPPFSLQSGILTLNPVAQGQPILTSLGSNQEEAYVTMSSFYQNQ
Chain of UniProt P55899 (P55899 24-297): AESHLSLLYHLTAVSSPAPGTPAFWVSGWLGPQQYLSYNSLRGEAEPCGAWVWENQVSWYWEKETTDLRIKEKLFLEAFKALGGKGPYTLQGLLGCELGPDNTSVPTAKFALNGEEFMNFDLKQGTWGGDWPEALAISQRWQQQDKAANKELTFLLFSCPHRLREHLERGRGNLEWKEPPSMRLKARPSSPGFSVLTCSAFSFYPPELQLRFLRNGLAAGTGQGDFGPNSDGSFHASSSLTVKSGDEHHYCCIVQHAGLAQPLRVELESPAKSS

## REGN1932, anti-FelD1 IgG1 isotype control (antibody)
Human FcRn-mmh (human)
  5 uM mAb Bound (RU): 9.1 RU

## REGN1945, anti-fel d 1 IgG4 isotype control (antibody)
Human FcRn-mmh (human)
  5 uM mAb Bound (RU): 8 RU

## REGN4009, recombinant hTSLP.mmh (from UniProt Q969D9 29-159) (ligand)
[1]
  EC50, STAT3-luciferase dose response of hTSLP mmh in BAF3/hIL7R/hTSLPR/Stat3-Luc cells: 0.0613 nM
[2]
  EC50 of hTSLP mmh in the Stat3-Luc reporter assay (number only, curve not drawn): 0.075 nM

## human TSLP (hTSLP) (from UniProt Q969D9 29-159) (ligand)
[3]
  hTSLP EC50 [M], STAT3-Luciferase reporter assay: 4.35e-11 M

— patent publication US20220235126A1
